The results in this text go back to paper PMC8560915, “Nematode CDC-37 and DNJ-13 form complexes and can interact with HSP-90” (Scientific Reports, 2021).

B1: Labeled CDC-37 (*CDC-37) (natural protein, nematode, UniProt O02108 1-370, looked up)
chain: MPIDYSKWKDIEVSDDEDDTHPNIDTPSLFRWRHQARLERMAEKKMEQEKIDKEKGTTSKKMEELEKKLAAADVTDKSDIQKQIDEVKAQEEAWRKKEAELEEKERLEPWNVDTIGHEAFSTSRINKITEKKPQAPKTDEEDTHAMSTFFETHESLLEKMAVLKNGAKSTELFLAEHPHMASEYTANWLTIEALNAAIDFNEEKMKTMAEQCIIIQYLLELSKSLNAVATNTTVQKQFFKKFEAAEPVYMKHYQDEVKAFEDRLRTRAQTKRDAAMEEAEAEEKAERMKSAPGGIDPQEVFEQLPEEMRKCFEAHDIEALKGVAQKMDEEVFKYHFDRCIASGLWVPGKADDDDDDEEAAPAEEEPTTSS
modifications: ATTO 488 C5-maleimide at its cysteine residues
notes: CDC-37, kinase-specific Hsp90 cofactor of nematodes; same protein as m1, labeled at cysteines; The methods name ATTO 488 C5-maleimide, the results call the label AlexaFluor 488; also called fluorescently labeled CDC-37; AlexaFluor 488-labeled CDC-37
B3: DNJ-13 (natural protein)
chain: not shown
notes: DNJ-13, cytosolic Hsp40-like J domain protein of C. elegans; cDNA in pET28b after the N-terminal His6 tag; called full-length in the results; also called full-length DNJ-13; DNJ-13 dimer; source: E. coli BL21-CodonPlus(DE3)RIL, purified (HisTrap FF, ResourceS ion exchange, Superdex 75 SEC)

One data set deals with T1, HSP-90 (nematode, UniProt Q18688 1-702).
T1 construct: HSP-90 of nematodes, the chaperone for which CDC-37 acts as co-chaperone; the construct is not described
As to the kind of experiment: AUC; sedimentation velocity with fluorescence detection; 300 nM *CDC-37 with or without 2 µM binding partners; 42,000 rpm, 20 °C; 40 mM HEPES/KOH pH 7.5, 20 mM KCl, 1 mM DTT, 5 mM MgCl2; with and without ATPγS for HSP-90. The settings on record: both partners purified.

The target of the data set “DNJ-13” is B3. As to the kind of experiment: AUC; sedimentation velocity with UV/Vis absorbance, non-labeled proteins, 0.5 mg/ml protein; 10 µM DNJ-13 with substoichiometric, equal or excess CDC-37; 2DSA analysis in UltraScan III. The settings on record: both partners purified.
The data set “Labeled CDC-37 (*CDC-37)” has as its target B1. As to the kind of experiment: AUC; fluorescence AUC titration, 100 nM *CDC-37 with 0-10 µM DNJ-13; sedimentation coefficients against DNJ-13 concentration fitted with a Michaelis-Menten function; approximate KD. As to conditions: both partners purified.
Data set [1] deals with the molecule itself. As to the kind of experiment: cross-linking; isotope labeled BS3-H12/D12 and DSSG-H6/D6; 16 µM DNJ-13 and 16 µM CDC-37; bands cut from SDS-PAGE, tryptic digest, nanoLC-ESI-MS/MS; crosslinks identified with xMASS and pLink2.0.

Sequence of DNJ-13 (Q20774 entry or part of it): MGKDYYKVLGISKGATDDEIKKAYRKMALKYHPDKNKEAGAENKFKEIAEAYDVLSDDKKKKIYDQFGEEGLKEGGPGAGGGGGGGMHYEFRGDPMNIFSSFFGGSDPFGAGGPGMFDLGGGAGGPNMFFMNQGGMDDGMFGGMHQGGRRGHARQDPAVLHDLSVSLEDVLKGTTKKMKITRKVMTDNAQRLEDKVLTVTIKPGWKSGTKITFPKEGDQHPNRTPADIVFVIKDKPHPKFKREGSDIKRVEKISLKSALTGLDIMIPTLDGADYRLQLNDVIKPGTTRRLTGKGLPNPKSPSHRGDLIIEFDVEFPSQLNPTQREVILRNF

Turning to B1, in the data set with HSP-90, the binding result is “binds”.

B2: CDC-37 (natural protein, nematode, UniProt O02108 1-370, looked up)
chain: MPIDYSKWKDIEVSDDEDDTHPNIDTPSLFRWRHQARLERMAEKKMEQEKIDKEKGTTSKKMEELEKKLAAADVTDKSDIQKQIDEVKAQEEAWRKKEAELEEKERLEPWNVDTIGHEAFSTSRINKITEKKPQAPKTDEEDTHAMSTFFETHESLLEKMAVLKNGAKSTELFLAEHPHMASEYTANWLTIEALNAAIDFNEEKMKTMAEQCIIIQYLLELSKSLNAVATNTTVQKQFFKKFEAAEPVYMKHYQDEVKAFEDRLRTRAQTKRDAAMEEAEAEEKAERMKSAPGGIDPQEVFEQLPEEMRKCFEAHDIEALKGVAQKMDEEVFKYHFDRCIASGLWVPGKADDDDDDEEAAPAEEEPTTSS
notes: CDC-37, kinase-specific Hsp90 cofactor of nematodes; cDNA in pET28b after the N-terminal His6 tag; called full-length in the results; Cleavage of the His6 tag is not mentioned; also called full-length CDC-37; FL; source: E. coli BL21-CodonPlus(DE3)RIL, purified (HisTrap FF, ResourceS ion exchange, Superdex 75 SEC)
Regarding B2, the “stoichiometry N” value with DNJ-13 was determined as 1 CDC-37 per DNJ-13 dimer.

As to B3, the Kd in the data set with Labeled CDC-37 (*CDC-37) is ~3000 nM. For the same molecule, the “stoichiometry N” value in data set [1] was 2.

One may read the stoichiometry N as a count of units in the complex or per binding partner. By Kd is commonly meant the concentration at which binding is half-saturated. The low end stands for tighter binding, the high end for weaker binding.
